From patent publication US12428446B2, “Peptide compound or pharmaceutically acceptable salt thereof” (Eyebio Korea, priority 2019, dated 2025)
Primed or numbered codes have the meaning given here. Where no end group is shown, it is not given here. [ ]: non-standard residue; d: D form. The star is where a group is joined. Pro(4-methylene) = C=C1CN[C@H](C(=O)O)C1; Pro(cis-4-F) = O=C(O)[C@@H]1C[C@H](F)CN1; Pro(4,4-F2) = O=C(O)[C@@H]1CC(F)(F)CN1; Pro(4,4-Me2) = CC1(C)CN[C@H](C(=O)O)C1; Asu′ = aspartimide (aminosuccinimide); Hyp = O=C(O)[C@@H]1C[C@@H](O)CN1; dHyp = O=C(O)[C@H]1C[C@H](O)CN1; Tle = CC(C)(C)[C@H](N)C(=O)O; Aib = CC(C)(N)C(=O)O; OiPr = CC(C)O*

Assay: Evaluation of dissolution stability (content change on storage in dissolved state)
Type: physicochemical
Details: 1 mg/1 ml dissolved state, 40° C. and RH 75%

Substance: [Hyp]G[dQ]DGL [Example 60]
- Day 1 content (%): 92.72%
- Day 3 content (%): 88.92%
- Day 7 content (%): 58.84%
- Initial content (%): 97.21%

Substance: 4,4-difluoro-Pro-Gly-Gln-Asp-Gly-Leu-Ala ([Pro(4,4-F2)]GQDGLA) [Example 53]
- Day 1 content (%): 87.14%
- Day 3 content (%): 76.02%
- Day 7 content (%): 62.88%
- Initial content (%): 94.88%

Substance: Hyp-Gly-Gln-His-Gly-Leu-Ala ([Hyp]GQHGLA) [Example 80]
- Day 1 content (%): 97.18%
- Day 3 content (%): 97.13%
- Day 7 content (%): 97.07%
- Initial content (%): 98.44%

Substance: Hyp-Gly-Gln-Asp (isopropyl ester)-Gly-Leu-Ala ([Hyp]GQD(OiPr)GLA) [Example 117]
- Day 1 content (%): 90.61%
- Day 3 content (%): 85.37%
- Day 7 content (%): 76.88%
- Initial content (%): 94.77%

Substance: Hyp-Gly-Gln-Asp-Gly-Leu-Ala (isopropyl ester) ([Hyp]GQDGLA-OiPr) [Example 108]
- Day 1 content (%): 67.07%
- Day 3 content (%): 62.81%
- Day 7 content (%): 59.24%
- Initial content (%): 79.49%

Substance: cis-4F-Pro-Gly-Gln-Asp-Gly-Leu ([Pro(cis-4-F)]GQDGL) [Example 46]
- Day 1 content (%): 87.32%
- Day 3 content (%): 81.37%
- Day 7 content (%): 62.32%
- Initial content (%): 93.29%

Substance: Hyp-Gly-Leu-Ala-Gly-Pro-Lys ([Hyp]GLAGPK) [Example 27]
- Day 1 content (%): 98.16%
- Day 3 content (%): 98.15%
- Day 7 content (%): 98.16%
- Initial content (%): 98.24%

Substance: Hyp-Gly-Gln-Asu-Gly-Leu ([Hyp]GQ[Asu′]GL) [Example 101]
- Day 1 content (%): 86.61%
- Day 3 content (%): 86.38%
- Day 7 content (%): 83.40%
- Initial content (%): 88.72%

Substance: Hyp-Gly-Gln-His-Gly-Leu ([Hyp]GQHGL) [Example 82]
- Day 1 content (%): 92.51%
- Day 3 content (%): 85.09%
- Day 7 content (%): 79.04%
- Initial content (%): 97.54%

Substance: Leu-Ala-Gly-Pro-Lys (LAGPK) [Example 25]
- Day 1 content (%): 85.76%
- Day 3 content (%): 81.09%
- Day 7 content (%): 77.40%
- Initial content (%): 89.14%

Substance: Hyp-Gly-Gln-Asu-Gly (isopropyl ester) [Example 109]
- Day 1 content (%): 79.15%
- Day 3 content (%): 69.45%
- Day 7 content (%): 59.07%
- Initial content (%): 85.34%

Substance: Hyp-Gly-Gln-Glu-Leu ([Hyp]GQEL) [Example 90]
- Day 1 content (%): 98.58%
- Day 3 content (%): 98.32%
- Day 7 content (%): 97.94%
- Initial content (%): 98.68%

Substance: Hyp-Gly-Gln-Asn-Gly-Leu-Ala ([Hyp]GQNGLA) [Example 79]
- Day 1 content (%): 97.87%
- Day 3 content (%): 81.04%
- Day 7 content (%): 76.89%
- Initial content (%): 94.36%

Substance: Hyp-Gly-Gln-Ala-Val-Leu ([Hyp]GQAVL) [Example 124]
- Day 1 content (%): 99.22%
- Day 3 content (%): 99.11%
- Day 7 content (%): 98.97%
- Initial content (%): 99.40%

Substance: PGQDGLA [Example 78]
- Day 1 content (%): 92.18%
- Day 3 content (%): 85.14%
- Day 7 content (%): 74.01%
- Initial content (%): 97.41%

Substance: Hyp-Gly-Gln-Asu-Gly-Leu (isopropyl ester) [Example 111]
- Day 1 content (%): 90.71%
- Day 3 content (%): 82.07%
- Day 7 content (%): 69.37%
- Initial content (%): 97.48%

Substance: Hyp-Gly-Gln-Ala-Gly-Leu-Ala ([Hyp]GQAGLA) [Example 14]
- Day 1 content (%): 96.58%
- Day 3 content (%): 96.07%
- Day 7 content (%): 95.55%
- Initial content (%): 97.13%

Substance: 4,4-difluoro-Pro-Gly-Gln-Asp-Gly-Leu ([Pro(4,4-F2)]GQDGL) [Example 48]
- Day 1 content (%): 84.40%
- Day 3 content (%): 76.53%
- Day 7 content (%): 53.82%
- Initial content (%): 92.71%

Substance: 4,4-difluoro-Pro-Gly-Gln-Asp-Gly ([Pro(4,4-F2)]GQDG) [Example 43]
- Day 1 content (%): 86.75%
- Day 3 content (%): 65.09%
- Day 7 content (%): 48.43%
- Initial content (%): 99.47%

Substance: Asu-Gly-Leu-Ala-Gly-Pro-Lys ([Asu′]GLAGPK) [Example 105]
- Day 1 content (%): 54.80%
- Day 3 content (%): 41.83%
- Day 7 content (%): 31.24%
- Initial content (%): 89.11%

Substance: Hyp-Gly-Gln-Glu-tert Leu-Leu-Ala ([Hyp]GQE[Tle]LA) [Example 93]
- Day 1 content (%): 98.35%
- Day 3 content (%): 98.05%
- Day 7 content (%): 97.79%
- Initial content (%): 98.39%

Substance: Hyp-Gly-Gln-Asp-Ala-Leu-Ala ([Hyp]GQDALA) [Example 39]
- Day 1 content (%): 91.76%
- Day 3 content (%): 88.16%
- Day 7 content (%): 85.50%
- Initial content (%): 93.03%

Substance: [Hyp]G[dQ]DGLA [Example 63]
- Day 1 content (%): 88.74%
- Day 3 content (%): 81.41%
- Day 7 content (%): 64.20%
- Initial content (%): 94.37%

Substance: 4-methylene-Pro-Gly-Gln-Asp-Gly-Leu-Ala ([Pro(4-methylene)]GQDGLA) [Example 54]
- Day 1 content (%): 83.66%
- Day 3 content (%): 73.59%
- Day 7 content (%): 62.48%
- Initial content (%): 95.42%

Substance: Hyp-Gly-Gln-Aib-Gly-Leu ([Hyp]GQ[Aib]GL) [Example 84]
- Day 1 content (%): 97.91%
- Day 3 content (%): 97.29%
- Day 7 content (%): 96.49%
- Initial content (%): 97.78%

Substance: [dHyp]GQDG [Example 40]
- Day 1 content (%): 81.96%
- Day 3 content (%): 70.04%
- Day 7 content (%): 51.11%
- Initial content (%): 89.95%

Substance: D Hyp-Gly-Gln-Asp-Gly-Leu ([dHyp]GQDGL) [Example 45]
- Day 1 content (%): 86.74%
- Day 3 content (%): 69.07%
- Day 7 content (%): 56.03%
- Initial content (%): 94.45%

Substance: [Hyp]GQDVLA [Example 37]
- Day 1 content (%): 98.64%
- Day 3 content (%): 97.76%
- Day 7 content (%): 93.55%
- Initial content (%): 98.59%

Substance: QLGLAGPK [Example 18]
- Day 1 content (%): 53.91%
- Day 3 content (%): 36.72%
- Day 7 content (%): 13.41%
- Initial content (%): 82.99%

Substance: Hyp-Gly-Gln-Asp (isopropyl ester)-Gly-Leu-Ala (isopropyl ester) [Example 114]
- Day 1 content (%): 75.01%
- Day 3 content (%): 56.84%
- Day 7 content (%): 32.74%
- Initial content (%): 84.91%

Substance: Hyp-Gly-Gln-Leu-Gly-Leu-Ala-Gly ([Hyp]GQLGLAG) [Example 17]
- Day 1 content (%): 96.53%
- Day 3 content (%): 96.69%
- Day 7 content (%): 96.27%
- Initial content (%): 96.55%

Substance: 4,4-dimethyl Pro-Gly-Gln-Asp-Gly-Leu-Ala ([Pro(4,4-Me2)]GQDGLA) [Example 57]
- Day 1 content (%): 75.20%
- Day 3 content (%): 71.82%
- Day 7 content (%): 53.88%
- Initial content (%): 91.95%

Substance: Hyp-Gly-Gln-Asp-Gly-Pro-Lys ([Hyp]GQDGPK) [Example 28]
- Day 1 content (%): 98.50%
- Day 3 content (%): 97.37%
- Day 7 content (%): 96.19%
- Initial content (%): 99.14%

Substance: Hyp-Gly-Gln-Ala-Gly-Leu ([Hyp]GQAGL) [Example 122]
- Day 1 content (%): 98.66%
- Day 3 content (%): 98.56%
- Day 7 content (%): 98.27%
- Initial content (%): 98.82%

Substance: QDGLAGPK [Example 16]
- Day 1 content (%): 47.33%
- Day 3 content (%): 16.48%
- Day 7 content (%): 10.78%
- Initial content (%): 80.41%

Substance: Hyp-Gly-Gln-Asu-Gly-Leu-Ala (isopropyl ester) [Example 113]
- Day 1 content (%): 92.40%
- Day 3 content (%): 85.41%
- Day 7 content (%): 72.35%
- Initial content (%): 93.25%

Substance: DGLAGP [Example 31]
- Day 1 content (%): 85.08%
- Day 3 content (%): 78.24%
- Day 7 content (%): 60.99%
- Initial content (%): 91.42%
